Experimental data published in PMC9103930.

Assays:
[1] = target: Deinococcus grandis Dps, wild type (Deinococcus grandis); experiment: SAXS; solution SAXS (batch and SEC-SAXS), 50 mM MOPS pH 7.0 with 50-480 mM NaCl (WT) or 50 and 230 mM NaCl (∆N); ab initio models (GASBOR, DAMMIN) with P23 symmetry set
[2] = target: Deinococcus grandis Dps tailless variant ∆N (lacking the first 46 residues) (Deinococcus grandis); experiment: SEC + other: dynamic light scattering; Superdex 200 10/300 GL calibrated with protein standards, and DLS at 25 °C; 200 mM MOPS pH 7.0, 200 mM NaCl; WT also in 50 mM MOPS pH 7.0 with 50-480 mM NaCl; apparent molecular mass and hydrodynamic diameter of the oligomer
[3] = target: Deinococcus grandis Dps tailless variant ∆N (lacking the first 46 residues) (Deinococcus grandis); experiment: SAXS; solution SAXS (batch and SEC-SAXS), 50 mM MOPS pH 7.0 with 50-480 mM NaCl (WT) or 50 and 230 mM NaCl (∆N); ab initio models (GASBOR, DAMMIN) with P23 symmetry set

| stoichiometry N [1] | stoichiometry N [2] | stoichiometry N [3] | Substance |
| --- | --- | --- | --- |
| 12 |  |  | Deinococcus grandis Dps, wild type (from UniProt A0A100HLL5 1-214) (natural protein) |
|  | 12 | 12 | Deinococcus grandis Dps tailless variant ∆N (lacking the first 46 residues) (from UniProt A0A100HLL5 47-205) (domain or fragment) |
